The nature of this data set: yeast display, Sf9 membrane polyspecificity reagent, FACS + sequencing; frameworks hold sequencing errors. The gist of the method: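 A synthetic nanobody library was expressed on Saccharomyces cerevisiae BJ5465 by galactose induction for 36–48 hours. The library was stained for 1 hour at 4 °C with 10% biotinylated, detergent-solubilized Sf9 membrane reagent and enriched with streptavidin microbeads before FACS. Low and high (top ~1%) gates were set on anti-HA fluorescence for expression and streptavidin fluorescence for reagent binding, and each polyreactivity label reflects the gate of origin.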
On to “QVQLVESGGGLVQAGGSLRLSCAASGFIFRDNAMGWYRQSPGKERELVAAISERGGRTYYADSVKGRFTISRDNAKNTVYLQMNSLKPEDTAVYYCADEDIAKFYYWGQGTQVTVSS”, for which the “polyreactivity (PSR sort gate)” value is reported as “high polyreactivity”.

Consider “QVQLVESGGGLVQAGGSLRLSCAASGFIFRGNAMGWYRQAPGKERELVAAISRRGGTTYYADSVKGRFTISRDNAKNTVYLQMNSLKPEDTAVYYCAKLVVVPFYYWGQGTQVTVSS”, for which the “polyreactivity (PSR sort gate)” value is on record as “high polyreactivity”.

Regarding “QVQLVESGGGLVQAGGSLRLSCAASGFIFRGNAMGWYRQAPGKERELVAAISWSGGNTYYADSVKGRFTISRDNAKNTVYLQMNSLKPEDTAVYYCAAGATWSRQGSIRYNYWGQGTQVTVSS”, the “polyreactivity (PSR sort gate)” value is given as “high polyreactivity”.

In the case of “QVQLVESGGGLVQAGGSLRLSCAASGFIFRGNAMGWYRQATGKERELVAGIRSLGGTTSYADSVKVRFTISRDNAKNTVYLQMNSLKPDDSGVYYCAAGYGADFDYWGQGTQVTVSS”, the “polyreactivity (PSR sort gate)” value is listed as “low polyreactivity”.

As to “QVQLVESGGGLVQAGGSLRLSCAASGFIFRGYAMGWYRQAPGKERELVAAISRRGGSTYYADSVKGRFTISRDNAKNTVYLHMNSLKPEDTAVYYCNAETTPQGNVRDGYWGQGTQVTVSS”, the “polyreactivity (PSR sort gate)” value was “high polyreactivity”.

With “QVQLVESGGGLVQAGGSLRLSCAASGFIFRHNAMGWYRQAPGKEREFVAAISISGGSTYYADSVKGRFTISRDNAKNTVDLQMNSLKPEDTAVYYCNARSLGNTYLLYDYWGQGTQVTVSS”, the “polyreactivity (PSR sort gate)” value was “low polyreactivity”.

Consider “QVQLVESGGGLVQAGGSLRLSCAASGFIFRHNAMVWYRQAPGKERELVAAITKRGGDTYYADSVKGRFTISRDNAKNTVYLQMISLKPEDTAVYYCNVDVRYPKYYYWGQGTQVTVSS”, for which the “polyreactivity (PSR sort gate)” value was “low polyreactivity”.

Turning to “QVQLVESGGGLVQAGGSLRLSCAASGFIFRKYVMGWYRQAPGKERELVAAITRSGTSTYYADSVKGRFTISRDNAKNTVYLQMNSLKPEDNAVYYCNVGSDGWYYWGQGTQVTVSS”, the “polyreactivity (PSR sort gate)” value is “low polyreactivity”.

Turning to “QVQLVESGGGLVQAGGSLRLSCAASGFIFRLYAMGWYRQAPGKERELVAAISGRGGNTYYADSVKGRFTISRDNAKNTVYLQMNSLKPEDTAVYYCAADRPGTGYSDYDYWGQGTQVTVSS”, the “polyreactivity (PSR sort gate)” value is reported as “high polyreactivity”.

For the sequence “QVQLVESGGGLVQAGGSLRLSCAASGFIFRLYAMGWYRQAPGKERELVAAISRGGSTTYADSVKGRFTISRDNAKNTVYLQMNSLKPEDTAVYYCATEGDYVAYLYDYWGQGTQVTVSS”, the “polyreactivity (PSR sort gate)” value is reported as “low polyreactivity”.

Take “QVQLVESGGGLVQAGGSLRLSCAASGFIFRPNAMGWYRQAPGKERELVAAITRDGDRTYYADSVKGRFTISRDNAKNTVYLQMNSLKPEETAVYYCAADVIQWWTRYYTWEYDYWGQGTQVTVSS”: the “polyreactivity (PSR sort gate)” value is recorded as “low polyreactivity”.

For “QVQLVESGGGLVQAGGSLRLSCAASGFIFRPYAMGSYRQAPGKERELVAAISYGDGITYYADSVKGRFTISRDNAKNTVYLQMNSLKPEDTAVYYCAAEYVSHFSGYRYDYWGQGTQVTVSS”, the “polyreactivity (PSR sort gate)” value is on record as “low polyreactivity”.

Consider “QVQLVESGGGLVQAGGSLRLSCAASGFIFRPYTMGWYRQAPGKERELVAAITYSGGSSTYYADSVKGRFTISRDNAKNTVYLQMNSLKPEDTAVSYCATTPDYGHDYWGQGTQVTVSS”, for which the “polyreactivity (PSR sort gate)” value was “low polyreactivity”.

Consider “QVQLVESGGGLVQAGGSLRLSCAASGFIFRPYVMGWYRQAPGTERELVAAISRSGSSTYYADSVKGRFTISRDNAKNTVYLQMNSLKPEDTAVYYCARRTSQEFDYWGQGTQVTVSS”, for which the “polyreactivity (PSR sort gate)” value was “high polyreactivity”.

For the sequence “QVQLVESGGGLVQAGGSLRLSCAASGFIFRQDAMGWYRQAPGKERELVAAISWRGGSTYYADSVKGRFTISRDNAKNTEYLQMNSLKPEDTAVYYCATRQTKYSNYRGDYWGQGTQVTVST”, the “polyreactivity (PSR sort gate)” value is on record as “high polyreactivity”.

Regarding “QVQLVESGGGLVQAGGSLRLSCAASGFIFRQYAMGWYRQAPGKERELVAAISWSGGSTYYADSVKGRFTISRDNAKNTVYLQMNSLKPEDTAVYYCNVLTPPTDYDYWGQGTQVTVSS”, the “polyreactivity (PSR sort gate)” value is “high polyreactivity”.

“QVQLVESGGGLVQAGGSLRLSCAASGFIFRRNAMGWYRQAPGKERELVAAISRSGGRTYYADSVKGRFTISRDNAKNTVYLQMNSLKPEDTAVYYCAAEYTDKYEYWGQGTQVTVSS”: the “polyreactivity (PSR sort gate)” value is listed as “high polyreactivity”.

For the sequence “QVQLVESGGGLVQAGGSLRLSCAASGFIFRRYAMGWYRQAPGKERDLVAAIRSDRSTNYADSVKGRFTISLDNAKNTVYLQMNSLKPEDTAVYYCARPYRSHYGWGVRGFDYWGQGTQVTVSS”, the “polyreactivity (PSR sort gate)” value is recorded as “high polyreactivity”.

Regarding “QVQLVESGGGLVQAGGSLRLSCAASGFIFRRYAMGWYRQAPGKERELVAAISWRSGSTYYADSVKGRFTISRDNAKNTVYLQMNSLKPEDTAVYYCAAKDQATYQLNYWGQGTQVTVSS”, the “polyreactivity (PSR sort gate)” value is listed as “high polyreactivity”.

Turning to “QVQLVESGGGLVQAGGSLRLSCAASGFIFRSYAMGWYRPAPGKERELVAAITKSGGRTYYADSVKGRFTISRDNAKNTVYLQMNSLKPEDTAVYYCAADQTSYSTSRRYDYWGQGTQVTVSS”, the “polyreactivity (PSR sort gate)” value is “high polyreactivity”.

Turning to “QVQLVESGGGLVQAGGSLRLSCAASGFIFRSYAMGWYRQAPGKERELVAAITSGGRTFYADSVKGRFTISRDNAKNTVYLQMNSLKPEDTAVYYCAAGGYRTGFNYWGQGTQVTVSS”, the “polyreactivity (PSR sort gate)” value is given as “high polyreactivity”.

As to “QVQLVESGGGLVQAGGSLRLSCAASGFIFRTYAMGWYRQAPGKEREFVAAISSGSSTYYADSEKGRFTISRDNANNSVYLQMISLKPEDTAVYYCAARVPQQSRTWRGSTRSYRYGYWGQGTQVTVSS”, the “polyreactivity (PSR sort gate)” value is reported as “high polyreactivity”.

As for “QVQLVESGGGLVQAGGSLRLSCAASGFIFRTYAMGWYRQAPGTERELVATITGDGSTNYADSVKGRFTISRDNAKNTVYLQMNSLKPEDTAVYYCSRDDRLAGDYWGQGTQVTVSS”, the “polyreactivity (PSR sort gate)” value is “low polyreactivity”.

Regarding “QVQLVESGGGLVQAGGSLRLSCAASGFIFRVNAMGWYRQAPGKEREFVAAITYSGGRTSYADSVKGRFTISRDNAKNTVYLQMNSLKPEDTAVYYCAALLYKPSVHAKYYYWGQGTQVTVSS”, the “polyreactivity (PSR sort gate)” value is reported as “high polyreactivity”.

Regarding “QVQLVESGGGLVQAGGSLRLSCAASGFIFRYAMGWYRQAPGKERELVAAISSSGGSTNYADSVKGRFTISRDNAKNTVYLQMNSLKPEDTAVYYCAARDGRQPRGYRLVTYYAPMYYWGQGTQVTVSS”, the “polyreactivity (PSR sort gate)” value is reported as “high polyreactivity”.

As for “QVQLVESGGGLVQAGGSLRLSCAASGFIFRYNAMAWYRQAPGKERELVAAIDSGGSTYYADSVKGRFTISRDNAKNTVYLQMNSMKPEDNAVYYCNAVVEASYPCVDYWGQGTQVTVSS”, the “polyreactivity (PSR sort gate)” value is listed as “low polyreactivity”.

Consider “QVQLVESGGGLVQAGGSLRLSCAASGFIFRYYAMGRYRQAPGKERELVAAISYSGGSTYYADSVKGRFTFSRDNAKNTVYLQINSMKPEDTAVYYCAKYTTSVYKQSLQQGYDYWGQGTQVSVSS”, for which the “polyreactivity (PSR sort gate)” value is given as “high polyreactivity”.

As to “QVQLVESGGGLVQAGGSLRLSCAASGFIFRYYAMGWYRQAPGKEREFVAAISRSGSSTYYADSVKGRFTISRDNAKNTVYLQMNSLKPEDTAVYYCNARKYRKGYGYWGQGTQVTVSS”, the “polyreactivity (PSR sort gate)” value is “high polyreactivity”.

In the case of “QVQLVESGGGLVQAGGSLRLSCAASGFIFRYYAMGWYRQAPGKERELVAAISGNGGNTYYADSVKGRFTISRDNAKNTVYLQMNSLKPEDTAVYNCNRAPGYRGGRYDYWGQGTQVTVSS”, the “polyreactivity (PSR sort gate)” value is on record as “high polyreactivity”.

For “QVQLVESGGGLVQAGGSLRLSCAASGFIFRYYAMGWYRQAPGKERELVAAISGSGGGTYYADSVKGRFTISRDNAKNTVYLQMNSLKPEDTAVYYCAAGSTSGYFRYYYWGQGSQVTVSS”, the “polyreactivity (PSR sort gate)” value was “high polyreactivity”.

For the origin of these results see the nanobody polyreactivity screen of Harvey et al. (2022).
